We go through 16 molecules from publication PMC10421740, “A universal deep-learning model for zinc finger design enables transcription factor reprogramming”.

In data set [1] the target is ZIM3 reprogrammed with array DPH1_75 (synthetic construct, UniProt Q96PE6 1-166). Nature of the data set: Zn; HEK293T, RT-qPCR 3 days after transfection.
The target of data set [2] is ZIM3 reprogrammed with array DPH1_225 (synthetic construct, UniProt Q96PE6 1-166). Nature of the data set: Zn; HEK293T, RT-qPCR 3 days after transfection. On the technique in general: Real-time PCR tracks product formation cycle by cycle.
Data set [3] deals with T1, ZFN pair 20BC_selected + 20ED_selected (synthetic construct, UniProt P14870;P14870 384-579;384-579).
T1 chain 1: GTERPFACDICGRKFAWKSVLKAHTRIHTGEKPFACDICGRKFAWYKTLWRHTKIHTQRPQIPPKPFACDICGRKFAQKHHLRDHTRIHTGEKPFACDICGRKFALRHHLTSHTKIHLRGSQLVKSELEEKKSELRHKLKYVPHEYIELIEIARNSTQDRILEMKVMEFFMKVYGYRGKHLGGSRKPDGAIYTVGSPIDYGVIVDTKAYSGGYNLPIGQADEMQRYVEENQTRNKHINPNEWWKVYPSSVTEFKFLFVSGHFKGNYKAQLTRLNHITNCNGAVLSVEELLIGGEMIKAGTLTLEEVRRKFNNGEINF
T1 chain 2: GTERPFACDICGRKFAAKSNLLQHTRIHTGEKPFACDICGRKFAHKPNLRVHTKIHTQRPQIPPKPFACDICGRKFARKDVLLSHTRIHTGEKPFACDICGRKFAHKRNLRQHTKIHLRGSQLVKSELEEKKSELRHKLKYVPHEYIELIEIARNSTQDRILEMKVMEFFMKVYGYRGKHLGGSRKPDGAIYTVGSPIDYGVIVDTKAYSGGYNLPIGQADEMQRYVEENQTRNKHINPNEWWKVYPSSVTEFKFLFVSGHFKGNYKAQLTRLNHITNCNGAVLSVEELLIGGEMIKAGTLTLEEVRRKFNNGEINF
Kind of data set: Zn; U2OS eGFP disruption, 3 days after nucleofection. Conditions: tags: N-terminal 3xFLAG and SV40 NLS (kept in the assay, left out here); copies: 1;1.

In data set [4] the target is ZFN pair 20BC_designed + 20ED_designed (synthetic construct, UniProt P14870;P14870 384-579;384-579). The data set is described as above. Conditions: tags: N-terminal 3xFLAG and SV40 NLS (kept in the assay, left out here); copies: 1;1.
Data set [5] concerns the target KLF6 reprogrammed with array CDKN1C_102 (synthetic construct, UniProt Q99612 1-199). Kind of data set: Zn; HEK293T, RT-qPCR 3 days after transfection.
In data set [6] the target is ZIM3 reprogrammed with array DPH1_24 (synthetic construct, UniProt Q96PE6 1-166). Kind of data set: Zn; HEK293T, RT-qPCR 3 days after transfection.
The target in data set [7] is KLF6 reprogrammed with array CDKN1C_150 (synthetic construct, UniProt Q99612 1-199). Nature of the data set: Zn; HEK293T, RT-qPCR 3 days after transfection.
Data set [8] addresses KLF6 reprogrammed with array CDKN1C_224 (synthetic construct, UniProt Q99612 1-199). Kind of data set: Zn; HEK293T, RT-qPCR 3 days after transfection.
In data set [9] the target is ZIM3 reprogrammed with array DPH1_99 (synthetic construct, UniProt Q96PE6 1-166). Nature of the data set: Zn; HEK293T, RT-qPCR 3 days after transfection.
The target in data set [10] is KLF6 reprogrammed with array CDKN1C_125 (synthetic construct, UniProt Q99612 1-199). Kind of data set: Zn; HEK293T, RT-qPCR 3 days after transfection.
The target in data set [11] is KLF6 reprogrammed with array CDKN1C_125 F1-6 (synthetic construct, UniProt Q99612 1-199). Kind of data set: Zn; HEK293T, RT-qPCR 3 days after transfection.
For data set [12], the target named is ZIM3 reprogrammed with array DPH1_151 (synthetic construct, UniProt Q96PE6 1-166). Nature of the data set: Zn; HEK293T, RT-qPCR 3 days after transfection.
Data set [13] has as its target ZIM3 reprogrammed with array DPH1_51 (synthetic construct, UniProt Q96PE6 1-166). Nature of the data set: Zn; HEK293T, RT-qPCR 3 days after transfection.
In data set [14] the target is T2, KLF6 reprogrammed with array CDKN1C_76 (synthetic construct, UniProt Q99612 1-199).
T2 chain: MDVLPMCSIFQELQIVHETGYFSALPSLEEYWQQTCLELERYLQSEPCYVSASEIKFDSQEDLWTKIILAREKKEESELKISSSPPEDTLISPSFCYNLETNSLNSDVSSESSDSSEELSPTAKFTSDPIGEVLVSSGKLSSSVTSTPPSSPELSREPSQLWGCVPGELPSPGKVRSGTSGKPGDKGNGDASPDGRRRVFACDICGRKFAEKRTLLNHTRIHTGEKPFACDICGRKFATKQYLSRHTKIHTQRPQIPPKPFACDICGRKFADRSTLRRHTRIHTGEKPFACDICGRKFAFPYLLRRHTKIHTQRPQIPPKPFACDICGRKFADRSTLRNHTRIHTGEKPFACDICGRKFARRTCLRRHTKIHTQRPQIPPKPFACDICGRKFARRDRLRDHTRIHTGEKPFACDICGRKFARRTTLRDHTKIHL
Kind of data set: Zn; HEK293T, RT-qPCR 3 days after transfection.

In data set [15] the target is ZIM3 reprogrammed with array DPH1_201 (synthetic construct, UniProt Q96PE6 1-166). Nature of the data set: Zn; HEK293T, RT-qPCR 3 days after transfection.
In data set [16] the target is ZIM3 reprogrammed with array Tet3 Rev (synthetic construct, UniProt Q96PE6 1-166). Kind of data set: Zn; HEK293T, 7x tetO CMV eGFP reporter.
The target of data set [17] is T3, KLF6 reprogrammed with array Tet4 Rev (synthetic construct, UniProt Q99612 1-199).
T3 chain: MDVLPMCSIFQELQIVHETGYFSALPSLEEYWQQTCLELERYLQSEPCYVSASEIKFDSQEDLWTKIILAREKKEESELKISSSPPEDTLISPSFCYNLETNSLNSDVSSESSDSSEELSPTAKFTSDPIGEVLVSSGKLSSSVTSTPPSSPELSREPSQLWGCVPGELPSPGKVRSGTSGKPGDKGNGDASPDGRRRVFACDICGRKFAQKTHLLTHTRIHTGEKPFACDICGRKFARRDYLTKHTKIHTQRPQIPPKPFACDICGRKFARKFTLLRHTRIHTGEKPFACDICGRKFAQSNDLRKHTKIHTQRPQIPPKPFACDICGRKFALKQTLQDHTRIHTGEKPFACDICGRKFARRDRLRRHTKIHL
Nature of the data set: Zn; HEK293T, 7x tetO minimal CMV GFP reporter.

Data set [18] deals with T4, KLF6 reprogrammed with array Tet3 Rev (synthetic construct, UniProt Q99612 1-199).
T4 chain: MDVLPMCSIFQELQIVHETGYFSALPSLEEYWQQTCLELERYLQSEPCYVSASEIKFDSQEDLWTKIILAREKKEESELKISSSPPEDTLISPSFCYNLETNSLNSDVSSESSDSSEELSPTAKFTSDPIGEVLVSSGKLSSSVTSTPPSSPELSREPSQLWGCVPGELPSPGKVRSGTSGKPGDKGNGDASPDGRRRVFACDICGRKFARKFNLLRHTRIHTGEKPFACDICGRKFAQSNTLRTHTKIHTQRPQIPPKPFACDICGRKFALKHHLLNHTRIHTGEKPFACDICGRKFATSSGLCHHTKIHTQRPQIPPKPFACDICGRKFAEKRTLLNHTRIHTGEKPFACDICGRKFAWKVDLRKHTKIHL
Nature of the data set: Zn; HEK293T, 7x tetO minimal CMV GFP reporter.

Data set [19] deals with ZIM3 reprogrammed with array DPH1_126 (synthetic construct, UniProt Q96PE6 1-166). Kind of data set: Zn; HEK293T, RT-qPCR 3 days after transfection.
In data set [20] the target is T5, KLF6 reprogrammed with array CDKN1C_172 (synthetic construct, UniProt Q99612 1-199).
T5 chain: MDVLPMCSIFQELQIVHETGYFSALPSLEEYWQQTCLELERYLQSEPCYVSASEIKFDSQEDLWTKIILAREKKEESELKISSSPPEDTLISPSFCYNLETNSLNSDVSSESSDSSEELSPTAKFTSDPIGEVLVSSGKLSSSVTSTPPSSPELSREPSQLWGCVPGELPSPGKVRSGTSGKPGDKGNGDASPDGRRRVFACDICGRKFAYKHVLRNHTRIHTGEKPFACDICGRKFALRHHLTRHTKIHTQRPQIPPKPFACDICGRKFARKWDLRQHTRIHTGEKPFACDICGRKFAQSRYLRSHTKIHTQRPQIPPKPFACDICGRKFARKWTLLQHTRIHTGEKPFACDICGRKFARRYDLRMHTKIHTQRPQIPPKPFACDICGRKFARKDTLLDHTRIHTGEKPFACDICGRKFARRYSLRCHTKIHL
Nature of the data set: Zn; HEK293T, RT-qPCR 3 days after transfection.

ZIM3 reprogrammed with array DPH1_151, sequence (Q96PE6 other isoform, or with tags, fused parts or gaps): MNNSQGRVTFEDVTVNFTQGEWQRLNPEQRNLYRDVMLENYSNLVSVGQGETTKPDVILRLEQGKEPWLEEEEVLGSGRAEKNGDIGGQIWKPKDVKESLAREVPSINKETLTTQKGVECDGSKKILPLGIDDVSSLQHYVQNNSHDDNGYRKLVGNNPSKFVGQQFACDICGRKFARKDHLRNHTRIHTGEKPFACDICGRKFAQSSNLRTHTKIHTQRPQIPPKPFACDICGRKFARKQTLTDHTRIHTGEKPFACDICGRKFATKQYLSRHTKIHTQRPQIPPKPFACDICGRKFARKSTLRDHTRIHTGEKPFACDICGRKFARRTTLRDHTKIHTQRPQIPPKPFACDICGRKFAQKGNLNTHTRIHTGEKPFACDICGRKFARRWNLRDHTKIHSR
ZIM3 reprogrammed with array DPH1_126, sequence (Q96PE6 other isoform, or with tags, fused parts or gaps): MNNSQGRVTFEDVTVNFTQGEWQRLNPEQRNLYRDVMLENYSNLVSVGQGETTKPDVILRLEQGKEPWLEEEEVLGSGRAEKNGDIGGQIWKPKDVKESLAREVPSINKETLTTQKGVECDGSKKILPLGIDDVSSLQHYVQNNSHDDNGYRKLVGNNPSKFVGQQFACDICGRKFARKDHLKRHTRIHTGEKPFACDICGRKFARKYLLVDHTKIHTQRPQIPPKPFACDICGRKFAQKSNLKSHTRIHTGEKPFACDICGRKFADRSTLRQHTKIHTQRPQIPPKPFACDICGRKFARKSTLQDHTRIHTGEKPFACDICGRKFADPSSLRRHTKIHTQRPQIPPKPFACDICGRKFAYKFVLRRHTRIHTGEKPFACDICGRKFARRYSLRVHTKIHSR
ZIM3 reprogrammed with array DPH1_75, sequence (Q96PE6 other isoform, or with tags, fused parts or gaps): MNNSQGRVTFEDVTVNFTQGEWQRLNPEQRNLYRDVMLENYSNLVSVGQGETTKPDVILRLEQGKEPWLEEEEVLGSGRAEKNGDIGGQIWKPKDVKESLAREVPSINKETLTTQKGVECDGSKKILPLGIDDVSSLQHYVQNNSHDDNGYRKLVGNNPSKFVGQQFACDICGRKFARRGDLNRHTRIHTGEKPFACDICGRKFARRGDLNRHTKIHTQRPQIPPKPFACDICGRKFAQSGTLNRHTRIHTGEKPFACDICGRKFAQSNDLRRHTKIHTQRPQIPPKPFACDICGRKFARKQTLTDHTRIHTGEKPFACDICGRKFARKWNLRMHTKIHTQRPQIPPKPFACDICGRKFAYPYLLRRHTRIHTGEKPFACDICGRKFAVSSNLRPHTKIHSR
ZIM3 reprogrammed with array DPH1_225, sequence (Q96PE6 other isoform, or with tags, fused parts or gaps): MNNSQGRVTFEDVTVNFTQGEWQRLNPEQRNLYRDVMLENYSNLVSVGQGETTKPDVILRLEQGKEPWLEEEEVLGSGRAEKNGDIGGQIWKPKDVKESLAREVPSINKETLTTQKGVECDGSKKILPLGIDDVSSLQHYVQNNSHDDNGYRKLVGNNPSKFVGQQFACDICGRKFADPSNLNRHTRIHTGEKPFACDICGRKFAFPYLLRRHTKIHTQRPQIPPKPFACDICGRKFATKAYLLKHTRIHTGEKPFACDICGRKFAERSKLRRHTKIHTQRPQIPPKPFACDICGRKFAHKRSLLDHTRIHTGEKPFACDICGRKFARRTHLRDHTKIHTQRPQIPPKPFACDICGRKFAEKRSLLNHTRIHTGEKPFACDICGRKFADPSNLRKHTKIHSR
ZIM3 reprogrammed with array DPH1_24, sequence (Q96PE6 other isoform, or with tags, fused parts or gaps): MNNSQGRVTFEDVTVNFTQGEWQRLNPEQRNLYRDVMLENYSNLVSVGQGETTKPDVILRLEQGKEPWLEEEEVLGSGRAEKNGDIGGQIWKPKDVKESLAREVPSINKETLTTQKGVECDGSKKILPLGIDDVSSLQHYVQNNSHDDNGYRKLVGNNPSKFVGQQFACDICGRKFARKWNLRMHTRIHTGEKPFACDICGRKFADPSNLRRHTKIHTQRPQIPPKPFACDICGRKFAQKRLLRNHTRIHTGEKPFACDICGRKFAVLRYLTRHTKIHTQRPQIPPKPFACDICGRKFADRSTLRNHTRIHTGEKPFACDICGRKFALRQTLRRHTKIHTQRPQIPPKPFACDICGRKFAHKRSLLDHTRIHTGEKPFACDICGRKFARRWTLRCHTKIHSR
ZIM3 reprogrammed with array DPH1_51, sequence (Q96PE6 other isoform, or with tags, fused parts or gaps): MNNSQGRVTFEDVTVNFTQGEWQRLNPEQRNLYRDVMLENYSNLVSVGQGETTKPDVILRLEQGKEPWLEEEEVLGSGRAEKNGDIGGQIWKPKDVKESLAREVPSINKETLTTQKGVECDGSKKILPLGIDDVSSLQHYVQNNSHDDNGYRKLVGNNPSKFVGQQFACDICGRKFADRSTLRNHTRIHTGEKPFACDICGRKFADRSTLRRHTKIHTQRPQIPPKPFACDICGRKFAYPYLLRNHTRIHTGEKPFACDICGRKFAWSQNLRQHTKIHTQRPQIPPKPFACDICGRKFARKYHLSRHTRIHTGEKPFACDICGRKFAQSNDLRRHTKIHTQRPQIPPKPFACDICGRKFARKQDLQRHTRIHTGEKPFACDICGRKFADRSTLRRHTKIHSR
ZIM3 reprogrammed with array DPH1_99, sequence (Q96PE6 other isoform, or with tags, fused parts or gaps): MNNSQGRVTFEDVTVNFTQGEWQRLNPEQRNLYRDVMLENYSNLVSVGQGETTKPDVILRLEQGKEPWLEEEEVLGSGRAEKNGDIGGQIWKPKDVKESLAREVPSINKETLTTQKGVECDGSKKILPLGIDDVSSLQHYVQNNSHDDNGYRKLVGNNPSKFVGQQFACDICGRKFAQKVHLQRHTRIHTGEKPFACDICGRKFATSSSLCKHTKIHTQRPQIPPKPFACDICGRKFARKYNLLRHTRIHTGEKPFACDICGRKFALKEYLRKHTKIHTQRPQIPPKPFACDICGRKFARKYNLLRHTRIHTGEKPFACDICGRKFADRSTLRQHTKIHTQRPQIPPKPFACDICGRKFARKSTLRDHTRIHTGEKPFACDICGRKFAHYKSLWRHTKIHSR
ZIM3 reprogrammed with array DPH1_201, sequence (Q96PE6 other isoform, or with tags, fused parts or gaps): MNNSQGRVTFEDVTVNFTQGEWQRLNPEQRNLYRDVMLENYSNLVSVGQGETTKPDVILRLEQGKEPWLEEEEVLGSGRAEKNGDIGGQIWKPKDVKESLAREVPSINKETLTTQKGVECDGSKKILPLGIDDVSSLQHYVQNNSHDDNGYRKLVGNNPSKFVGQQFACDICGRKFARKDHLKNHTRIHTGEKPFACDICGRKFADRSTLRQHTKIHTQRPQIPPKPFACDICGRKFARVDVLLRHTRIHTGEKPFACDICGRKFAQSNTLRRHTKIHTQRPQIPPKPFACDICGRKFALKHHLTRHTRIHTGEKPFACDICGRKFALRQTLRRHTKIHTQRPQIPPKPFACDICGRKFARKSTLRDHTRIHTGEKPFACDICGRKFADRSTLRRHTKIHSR
ZIM3 reprogrammed with array Tet3 Rev, sequence (Q96PE6 other isoform, or with tags, fused parts or gaps): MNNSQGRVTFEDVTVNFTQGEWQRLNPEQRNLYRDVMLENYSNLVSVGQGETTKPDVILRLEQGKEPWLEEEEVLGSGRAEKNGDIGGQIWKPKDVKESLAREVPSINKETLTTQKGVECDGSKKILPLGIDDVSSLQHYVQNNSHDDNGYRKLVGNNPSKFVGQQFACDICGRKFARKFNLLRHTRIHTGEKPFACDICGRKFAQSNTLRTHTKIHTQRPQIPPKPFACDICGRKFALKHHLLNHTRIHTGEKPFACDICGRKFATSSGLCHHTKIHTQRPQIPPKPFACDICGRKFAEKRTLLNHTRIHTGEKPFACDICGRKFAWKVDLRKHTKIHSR

B1: DPH1_75 (dsDNA)
DNA 1: GAGGGCGCAGCGTTCCAGCACCCACCTC
DNA 2: GAGGTGGGTGCTGGAACGCTGCGCCCTC
On to B1, for which the binding signal in data set [1] is ~0.62 relative expression (lower = more activity, repressor).

B2: DPH1_225 (dsDNA)
DNA 1: TACCCCTGGGCTCCGGCTGACAGCGACC
DNA 2: GGTCGCTGTCAGCCGGAGCCCAGGGGTA
For B2, in data set [2], the binding signal is ~0.62 relative expression (lower = more activity, repressor).

B3: eGFP site 20 (8 fingers) (dsDNA)
DNA 1: GAAGGGCATCGACTTCAAGGAGGACGGCAACATC
DNA 2: GATGTTGCCGTCCTCCTTGAAGTCGATGCCCTTC
Take B3: the figures for the binding signal in data set [3] and in data set [4] were ~69 % GFP-negative cells (higher = more activity) and ~17 % GFP-negative cells (higher = more activity), respectively.

B4: CDKN1C_102 (dsDNA)
DNA 1: CGCCCCCGGTGGGTGTGCGCGCGGCCAA
DNA 2: TTGGCCGCGCGCACACCCACCGGGGGCG
Regarding B4, the binding signal in data set [5] is ~2.5 relative expression (higher = more activity).

B5: DPH1_24 (dsDNA)
DNA 1: CTGCTCCGCTGCCCCGGATACGACCAGC
DNA 2: GCTGGTCGTATCCGGGGCAGCGGAGCAG
For B5, the binding signal in data set [6] was ~0.27 relative expression (lower = more activity, repressor).

B6: CDKN1C_150 (dsDNA)
DNA 1: GGCCGCGGCGGGGCGGGGCAGCGGGGCG
DNA 2: CGCCCCGCTGCCCCGCCCCGCCGCGGCC
Turning to B6, the binding signal in [7] is ~9 relative expression (higher = more activity).

B7: CDKN1C_224 (dsDNA)
DNA 1: GCTAATCGCGGCCGGGCCCGCGCGCACG
DNA 2: CGTGCGCGCGGGCCCGGCCGCGATTAGC
Consider B7, for which the binding signal in data set [8] is ~2.5 relative expression (higher = more activity).

B8: DPH1_99 (dsDNA)
DNA 1: GCCCCGCCCCGAGATGCGAGGTCTGGAG
DNA 2: CTCCAGACCTCGCATCTCGGGGCGGGGC
Regarding B8, the binding signal in [9] is ~0.68 relative expression (lower = more activity, repressor).

B9: CDKN1C_125 (dsDNA)
DNA 1: GCCAATGGGCGGTGCGCGGGGGCCGGGC
DNA 2: GCCCGGCCCCCGCGCACCGCCCATTGGC
Consider B9, for which the binding signal in data set [10] is ~43 relative expression (higher = more activity); in data set [11], ~16.5 relative expression (higher = more activity).

B10: DPH1_151 (dsDNA)
DNA 1: GAGAAAGGCGCCGCCGCCGTTAAAGGGG
DNA 2: CCCCTTTAACGGCGGCGGCGCCTTTCTC
For the molecule B10, in data set [12], the binding signal was ~0.7 relative expression (lower = more activity, repressor).

B11: DPH1_51 (dsDNA)
DNA 1: ACCTCTGCCAGGGCCGTCTCGGCCGCCC
DNA 2: GGGCGGCCGAGACGGCCCTGGCAGAGGT
For the molecule B11, the binding signal in data set [13] was ~0.61 relative expression (lower = more activity, repressor).

B12: CDKN1C_76 (dsDNA)
DNA 1: GCGCGCCCCGGCCGCGCGCCCCGCCCCG
DNA 2: CGGGGCGGGGCGCGCGGCCGGGGCGCGC
In the case of B12, the binding signal in data set [14] was ~2 relative expression (higher = more activity).

B13: DPH1_201 (dsDNA)
DNA 1: ACCCCGAGCTGGTGACAGCGGCCCAAGG
DNA 2: CCTTGGGCCGCTGTCACCAGCTCGGGGT
As for B13, the binding signal in [15] was ~0.43 relative expression (lower = more activity, repressor).

B14: tetO (dsDNA)
DNA 1: TCTCCCTATCAGTGATAGAGAC
DNA 2: GTCTCTATCACTGATAGGGAGA
For B14, the binding signal was ~0.23 normalised eGFP fluorescence (lower = more activity, repressor) in data set [16]; ~2500 mean GFP fluorescence (higher = more activity) in data set [17]; ~41000 mean GFP fluorescence (higher = more activity) in data set [18].

B15: DPH1_126 (dsDNA)
DNA 1: GGGGTTGGTCCTGTCCCTAACTTGGGGG
DNA 2: CCCCCAAGTTAGGGACAGGACCAACCCC
Consider B15, for which the binding signal in data set [19] was ~0.14 relative expression (lower = more activity, repressor).

B16: CDKN1C_172 (dsDNA)
DNA 1: GGGGCGGCCGCCAATCGCCGTGGTGTTG
DNA 2: CAACACCACGGCGATTGGCGGCCGCCCC
Regarding B16, in [20], the binding signal was ~3.3 relative expression (higher = more activity).
